# Laboratory results as given in patent US20220340924.
# T1: MYB46-GFP fusion
# T1 chain: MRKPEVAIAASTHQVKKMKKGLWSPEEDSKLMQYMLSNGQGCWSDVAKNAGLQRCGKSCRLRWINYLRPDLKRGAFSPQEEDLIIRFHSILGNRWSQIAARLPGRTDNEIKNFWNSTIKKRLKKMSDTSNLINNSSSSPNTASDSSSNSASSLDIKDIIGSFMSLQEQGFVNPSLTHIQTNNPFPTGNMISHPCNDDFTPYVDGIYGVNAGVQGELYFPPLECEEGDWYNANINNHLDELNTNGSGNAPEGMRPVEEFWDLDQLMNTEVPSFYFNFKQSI
# B1: CAMPK6-HA (hemagglutinin conjugated CAMPK6) (protein)
# chain: MDGGSGQPAADTEMTEAPGGFPAAAPSPQMPGIENIPATLSHGGRFIQYNIFGNIFEVTAKYKPPIMPIGKGAYGIVCSAMNSETNESVAIKKIANAFDNKIDAKRTLREIKLLRHMDHENIVAIRDIIPPPLRNAFNDVYIAYELMDTDLHQIIRSNQALSEEHCQYFLYQILRGLKYIHSANVLHRDLKPSNLLLNANCDLKICDFGLARVTSESGFMTAYVVTRWYRAPELLLNSSDYTAAIDVWSVGCIFMELMDRKPLFPGRDHVHQLRLLMELIGTPSEEELEFLNENAKRYIRQLPPYPRQSITDKFPTVHPLAIDLIEKMLTFDPRRRITVLDALAHPYLNSLHDISDEPECTIPFNFDFENHALSEEQMKELIYREALAFNPEYQQ
# Target: T1, MYB46-GFP fusion
protein,measurement,value
B1,immunocomplex kinase assay (phosphorylation of MYB46),CAMPK6 directly phosphorylates MYB46
